Patent US20090203538A1 (INSTITUTE FOR ANTIBODIES, published 2009)

T1: ALCAM (Activated leukocyte cell adhesion molecule) (Homo sapiens (Human), UniProt Q13740 28-583)
T1 construct: Native protein on cancer cell lines; also called CD166 antigen; CD166
T1 sequence: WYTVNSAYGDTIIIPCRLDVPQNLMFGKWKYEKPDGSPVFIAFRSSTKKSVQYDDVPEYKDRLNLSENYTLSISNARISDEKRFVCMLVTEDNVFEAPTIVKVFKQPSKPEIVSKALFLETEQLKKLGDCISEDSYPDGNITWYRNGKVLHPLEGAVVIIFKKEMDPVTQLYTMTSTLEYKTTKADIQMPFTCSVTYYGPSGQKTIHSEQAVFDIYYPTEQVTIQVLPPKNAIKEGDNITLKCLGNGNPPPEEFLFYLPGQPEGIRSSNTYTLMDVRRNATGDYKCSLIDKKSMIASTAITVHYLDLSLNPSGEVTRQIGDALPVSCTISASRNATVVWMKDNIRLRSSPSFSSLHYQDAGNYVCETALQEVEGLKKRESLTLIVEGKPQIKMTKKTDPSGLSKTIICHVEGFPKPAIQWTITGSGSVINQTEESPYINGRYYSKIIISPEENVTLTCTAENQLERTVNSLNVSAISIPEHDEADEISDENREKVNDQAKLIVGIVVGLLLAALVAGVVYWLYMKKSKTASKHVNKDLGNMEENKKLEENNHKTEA

B1: 015-102 antibody (antibody, V domains shown)
VH: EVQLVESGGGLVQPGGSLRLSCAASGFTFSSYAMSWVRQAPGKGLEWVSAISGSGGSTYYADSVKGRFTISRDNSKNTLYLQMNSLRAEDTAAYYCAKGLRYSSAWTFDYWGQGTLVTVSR
VL: QSALTQPASVSGSPGQSITISCTGTSSDVGGYNYVSWYQQHPGKAPKLMIYDVSNRPSGVSNRFSGSKSGNTASLTISGLQAEDEADYYCSSYTSSSTPVVFGGGTKLTVLG
notes: Clone of the scFv-CL-cp3 phage library
B2: 086-032 antibody (antibody, V domains shown)
VH: QVQLVQSGSEVKKPGASVKVSCKTSGYIFTDYYMHWVRQAPGKGLEWMGWINPNSGGTYYAQKFHGRVTMTSDTSISTAYMELSSLRSDDTAIYYCAREDYDILTGYYPASGHGDYWGQGTLVTVSR
VL: QAVVTQEPSLTVSPGGTVTLTCASSTGAVTSGFLANWFQQKPGQTPRSLIYKTSNKHPWTPARFSGSLLGGKAALTLSGVQPEDEADYYCLLLSGGAWVFGGGTKLSVLG
notes: as for B1
B3: 086-138 antibody (antibody, V domains shown)
VH: QVQLVQSGSEVKKPGASVKVSCKTSGYIFTDYYMHWVRQAPGKGLEWMGWINPNSGGTYYAQKFHGRVTMTSDTSISTAYMELSSLRSDDTAIYYCAREDYDILTGFYPASGHGDYWGQGTLVTVSR
VL: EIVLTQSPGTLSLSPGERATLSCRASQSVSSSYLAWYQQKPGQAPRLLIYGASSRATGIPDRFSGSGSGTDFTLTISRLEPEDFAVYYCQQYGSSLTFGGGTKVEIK
notes: as for B1
B4: 075-024 antibody (antibody, V domains shown)
VH: QVQLVQSGAEVKKPGASVKVSCKASGYTFTSYGISWVRQAPGQGLEWMGWISAYNGNTNYAQKLQGRVTMTTDTSTSTAYMELRSLRSDDTAVYYCARGGAFDIWGQGTTVTVSR
VL: QSVLTQPPSVSGAPGQRVTISCTGSSSNIGAGYHVYWYQQLPGKAPKLLIYVNSNRPSGVPDRFSGSKSGTSASLAITGLQADDEADYYCQSYDSSLSGRVFGGGTKLTVLG
notes: as for B1
B5: 039-016 antibody (antibody, V domains shown)
VH: EVQLVESGGNLVQPGGSLRLSCAASGFTFSRYWMTWVRQAPGKGLEWISSVSSSGSTIYYADSVKGRFTISRDNAKNSLYLQMNSLRVEDTAVYYCARDYWPGWYFDLWGRGTLVTVSR
VL: QAVLTQPSSLSASPGASASLTCTFRSDISVGSYRIYWYQQKPGSPPQFLLKYTSDSDKQQGSGVPSRFSGSKDVSANAGILLISGLQSEDEADYYCMTWHNTASVFGGGTKLAVLG
notes: as for B1
B6: 075-110 antibody (antibody, V domains shown)
VH: EVQLVESGGGLVQPGGSLRLSCSASGFTFSNYWMTWVRQAPGKGLEWISSISSSGSTIYYADSVKGRFTISRDNAKNSLYLQMNSLRVEDTAVYYCARDYWPGWYFDLWGRGTLVTVSR
VL: QAVLTQPSSLSASPGASASLTCTFRSDISVGSYRIYWYQQKPGSPPQFLLKYTSDSDKQQGSGVPSRFSGSKDVSANAGILLISGLQSEDEADYYCMTWHNTASVFGGGTKLAVLG
notes: as for B1
B7: 015-143 antibody (antibody, V domains shown)
VH: QVQLVQSGAEVKKPGASVKVSCKASGYTFTSYGISWVRQAPGQGLEWMGWISAYNGNTNYAQKLQGRVTMTTDTSTSTAYMELRSLRSDDTAVYYCARAFRDWGSLRDYWGQGTLVTVSR
VL: QSVLTQPPSVSAAPGQKVTISCSGSSSNIGNNYVSWYQQLPGTAPKLLIYDNNKRPSGIPDRFSGSKSGTSATLGITGLQTGDEADYYCGTWDSSLSAVVFGGGTKLTVLG
notes: as for B1
B8: 015-044 antibody (antibody, V domains shown)
VH: QVQLQESGPGLVKPSETLSLTCTVSGGSISSSSYYWGWIRQPPGKGLEWIGSIYYSGSTYYNPSLKSRVTISVDTSKNQFSLKLSSVTAADTAVYYCAMRAYGSGSYDYWGQGTLVTVSR
VL: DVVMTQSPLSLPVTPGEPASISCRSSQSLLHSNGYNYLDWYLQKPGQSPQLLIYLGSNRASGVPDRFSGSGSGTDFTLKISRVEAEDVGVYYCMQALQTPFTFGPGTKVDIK
notes: as for B1
B9: 015-136 antibody (antibody, V domains shown)
VH: QVQLVQSGSELKKPGASVKVSCKASGYIFTRYGINWVRQAPGQGLEWMGWINTNTGNPTYAQGFTGRVVFSLDTSVSTAYLQISSLKAEDTAMYYCAISSGFGYYFDYWGQGTLVTVSR
VL: DIQMTQSPSSVSASVGDRVTITCRASQSISRWLAWYQQKPGKAPKFLIYAGSSLQSGVPSRFSGSGSGTDFTLTISSLQPEDFATYYCQQTNSFPLTFGGGTKVEIK
notes: as for B1
B10: 053-216 antibody (antibody, V domains shown)
VH: EVQLVESGGGLIRPGGSLRLSCTASGFTFSSYTMNWVRQAPGKGLEWLSYISGGSGTKFYADSVKGRFTVSRDNAKNSLYLEMNSLRPEDTAVYYCALVSYSSPGFDYWGQGTLVTVSS
VL: SYELTQPPSVSVSPGQTASITCSGDKLGDKYVYWYQQKPGQSPILLIFQDSERPSGIPERFSGSNSGNTATLTISGTQAMDEADYYCQAWDSSAAVFGGGTKLTVLG
notes: as for B1
B11: 015-209 antibody (antibody, V domains shown)
VH: EVQLVESGAEVKKPGESLKISCKGSGYSFTSYWIGWVRQMPGKGLEWMGIIYPGDSDTRYSPSFQGQVTISADKSISTAYLQWSSLKASDTAMYYCARLAVGAYQYYFDYWGQGTLVTVSR
VL: QTVVTQEPSFSVSPGGTVTLTCGLSSGSVSTSYYPSWYQQTPGQAPRTLIYSTNTRSSGVPDRFSGSILGNKAALTITGAQADDESDYYCVLYMGSGISVFGGGTKLTVLG
notes: as for B1
B12: 086-182 antibody (antibody, V domains shown)
VH: QVQLVQSGAEVKKPGESLKISCKGSGYSFTSYWIGWVRQMPGKGLEWMGIIYPGDSDTRYSPSFQGQVTISADKSISTAYLQWSSLKASDTAMYYCARHGMTSGYVAHNDYWGQGTLVTVSR
VL: QTVVTQEPSFSVSPGGTVTLTCGLSSGSVSTSYYPSWYQQTPGQAPRTLIYSTNTRSSGVPDRFSGSILGNKAALTITGAQADDESDYYCVLYMGSGIWVFGGGTKLTVLG
notes: as for B1
B13: 086-036 antibody (antibody, V domains shown)
VH: QVQLVQSGAEVKKPGESLKISCKGSGYSFTSYWIGWVRQMPGKGLEWMGIIYPGDSDARYSPSFQGQVTISADKSISTAYLQWSSLKASDTAMYYCARLTGSSYYDSSGYSSYGMDVWGQGTTVTVSR
VL: QTVVTQEPSFSVSPGGTVTLTCGLSSGSVSTSYYPSWFQQTPGQAPRTLIYSTNTRSSGVPDRFSGSILGNKAALTITGAQADDESDYYCVLYMGSGISVFGGGTQLTVLG
notes: as for B1
B14: 086-035 antibody (antibody, V domains shown)
VH: QVQLVQSGAEVKKPGESLKISCEGSGYTFTSYWIGWVRQMPGKDLEWMGIIYPGDSDTRYSPSFQGQVTISVDKSISTAYLQWSSLKASDTAMYYCARHDVVDGYNTGMDVWGQGTTVTVSR
VL: QTVVTQEPSFTVSPGGTVTLTCGLSSGSVSTSYYPSWYQQTPGQAPRTLISSTNTRSSGVPDRFSGSILGNRAALTITGAQADDESDYYCVLYMGSGIWVFGGGTKLTVLG
notes: as for B1
B15: 086-061 antibody (antibody, V domains shown)
VH: QVQLVQSGAEVKKPGESLKISCKGSGYSFTSYWIGWVRQMPGKGLEWMGIIYPGDSDTRYSPSFQGQVTISADKSISTAYLQWSSLKASDTAMYYCARHNSNYYYYYMDVWGKGTLVTVSR
VL: QTVVTQEPSFSVSPGGTVTLTCGLSSGSVSTSYYPSWYQQTPGQAPRTLIYSTNTRSSGVPDRFSGSILGNKAALTITGAQADDESDYYCVLYMGSGISVFGGGTKLTVLG
notes: as for B1
B16: 084-103 antibody (antibody, V domains shown)
VH: QVQLVQSGAEVKKPGSSVKVSCKASGGTFSSYAISWVRQAPGQGLEWMGWMNPNSGNTGYAQKFQGRVTMTRNTSISTAYMELSSLRSEDTAVYYCARDVGIGVFDYWGQGTLVTVSR
VL: SYVLTQPPSVSVAPGKTARITCGGNNIGSKSVHWYQQKPGQAPVLVIYYDSDRPSGIPERFSGSNSGNTATLTISRVEAGDEADYYCQVWDSSSDHVVFGGGTKLTVLG
notes: as for B1
B17: 045-134 antibody (antibody, V domains shown)
VH: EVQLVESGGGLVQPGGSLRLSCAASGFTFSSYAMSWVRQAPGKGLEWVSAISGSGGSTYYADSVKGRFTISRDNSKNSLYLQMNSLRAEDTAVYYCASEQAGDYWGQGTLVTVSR
VL: QSVLTQPPSASGTPGQRVTISCSGSSSNIGSNYVYWYQQLPGTAPKLLIYRNNQRPSGVPDRFAGSKSGTSATLGITGLQTGDEADYYCGTWDSSLSAGVFGGGTKLTVLG
notes: as for B1
B18: 029-067 antibody (antibody, V domains shown)
VH: QVQLQQSGAEVKKPGASVKVSCKASGYTFTTYYMHWVRQAPGQGLEWMGIINPSGENTNYAQKFQGRVTMTRDTSTTTVYMELSSLRSEDTAVYYCARSFIGTRGGGLDVWGQGTTVTVSR
VL: QSVLTQPPSVSGAPGQRVNISCAGSSSNIGAGYDVHWYQQIPGTAPKLLMYGNSNRPSGVPDRFSGSKSGASASLAITRLQAEDEADYYCQSYDSSLSGSRVFGTGTKVTVLG
notes: as for B1
B19: 062-109 antibody (antibody, V domains shown)
VH: QVQLVQSGAEVKKPGASVKVSCKASGYTFTSYGISWVRQAPGQGLEWMGWISAYNGNTNYAQKLQGRVTMTTDTSTSTAYMELRSLRSDDTAVYYCARVGYYYYYGMDVWGQGTTVTVSR
VL: QSALTQPASVSGSPGQSITISCTGTSSDVGSYNLVSWYQQHPGKAPKLMIYEGSKRPSGVSNRFSGSKSGNTASLTISGLQAEDEADYYCSSYTSSSTWVFGGGTKLTVLG
B20: 062-101 antibody (antibody, V domains shown)
VH: QVQLVQSGAEVKKPGASVKVSCKASGYTFTSYYMHWVRQAPGQGLEWMGIINPSGGSTSYAQKFQGRVTMTRDTSTSTVYMELSSLRSEDTAVYYCARELSAATAFDIWGQGTMVTVSR
VL: ETTLTQSPFSVSASVGDRVTITCRASQYISRWLAWYQQRPGKAPKLLIYAAASLQSGVPSRFSGSGSGTDFTLTISSLQPEDFATYYCQQANSFPVTFGQGTRLEIK
notes: as for B1
B21: 029-143 antibody (antibody, V domains shown)
VH: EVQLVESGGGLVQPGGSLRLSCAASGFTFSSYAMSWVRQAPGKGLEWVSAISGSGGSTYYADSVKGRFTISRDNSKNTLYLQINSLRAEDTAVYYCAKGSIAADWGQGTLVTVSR
VL: SSELTQDPAVSVALGQTVRITCQGDSLRSYYASWYQQKPGQAPVLVIYGKNNRPSGIPDRFSGSSSGNTASLTITGAQAEDEADYYCNSRDSSGNVVFGGGTKLTVLG
notes: as for B1

The binders below were run against T2, HER2 (Homo sapiens (Human), UniProt P04626 23-1255) (assay: antigen assigned by the filing's classifying and identification method; details for this clone not given).
T2 construct: Native protein on cancer cell lines; also called erbB-2; ErbB2

Row | Binder | binding result
1 | B1 | binds
2 | B2 | binds
3 | B3 | binds
4 | B4 | binds
5 | B5 | binds
6 | B6 | binds
7 | B7 | binds
8 | B8 | binds
9 | B9 | binds
10 | B10 | binds
11 | B11 | binds
12 | B12 | binds
13 | B13 | binds
14 | B14 | binds
15 | B15 | binds

These binders were tested against T1, ALCAM (Activated leukocyte cell …) in the same assay as above.

Row | Binder | binding result
16 | B16 | binds
17 | B17 | binds
18 | B18 | binds
19 | B19 | binds
20 | B20 | binds
21 | B21 | binds
